Experimental data: patent US9573983B2, “Compositions including I-domain antigen conjugate compounds and methods for treatment of autoimmune disorders” (University of Kansas, priority 2012, dated 2017)
“And” between values parts separate entries of the source, which are not always exact repeats. Equal values may be shown once.

Experiments:
[1] = Hydrolysis of maleimide groups upon storage; format: physicochemical; details: storage after SEC purification; to be used within 48 h
[2] = test system: EAE mouse model; assay: Suppression of EAE, prophylactic and vaccine-like treatment (Example 2); format: in vivo, SJL/J female mice; details: for suppression of progress of EAE (clinical score, change in body weight, incidence of disease) / onset of disease: two i.v. injections, 26 nmol/injection, days 4 and 7; for onset of disease: I-domain controls; for onset of disease (clinical scores): IDAC molecules; for body weight change: p<0.05, days 12-24; for change in body weight: p<0.005, days 12-24
Experimental: Six-to-eight week old SJL/J female mice were immunized subcutaneously with 200 μg PLP139-151 peptide in a 0.2 ml emulsion consisting of equal volumes of PBS and complete Freund's adjuvant (CFA) containing killed mycobacterium tuberculosis strain H37RA at a final concentration of 4 mg/ml (Difco, Detroit, Mich.). The PLP/CFA emulsion was administered to regions above the shoulder and the flanks (total of 4 sites, 50 μl at each injection site). In addition, 200 ng of pertussis toxin was injected intraperitoneally on the day of immunization (day 0) and 2 days post-immunization.
The mice then received either intravenous or subcutaneous injections of IDAC (10 or 26 nmol/injection) or peptides (100 nmol/injection for Ac-PLP-BPI-NH2-2 or 50 nmol/injection/mouse for Ac-PLP-cIBR1-NH2). The prophylactic disease suppression was carried out with subcutaneous or intravenous injections of IDAC molecules on days 4 and 7, or BPI molecules on days 4, 7, and 10. Mice receiving vaccine-like treatment were given subcutaneous injections of IDAC and BPI molecules at 11, 8, and 5 days prior to the induction of disease. As negative controls, mice were treated with PBS, 1-domain, and GMB-I-domain. Disease progression was evaluated by monitoring the change in weight of the mice and clinical scoring based on the severity of nerve damage ranging from 0 to 5: 0—no clinical symptoms of disease; 1—tail weakness or limp tail; 2—paraparesis (weakness or partial paralysis of one or two hind limbs); 3—paraplegia (complete paralysis of two hind limbs); 4—paraplegia with forelimb weakness or paralysis; 5—moribund (at this point, the affected mice were euthanized).
(§1) Statistical differences among the groups in clinical disease scores were determined by calculating the average score for each mouse from day 12 to day 17 by one-way analysis of variance followed by Fisher's least significant difference. Statistical differences in body weight among groups were also analyzed in the same fashion, but from day 12 to day 24. Comparison of cytokine concentrations was also performed by one-way analysis of variance. All analyses were performed using StatView (SAS Institute, Cary, N.C.).

[3] = test system: mouse EAE model; assay: Suppression of EAE in PLP139-151/CFA-immunized mice (Example 1); format: in vivo, female inbred SJL/J mice
Experimental: Female inbred SJL/J mice, 5-7 weeks old, were randomly divided into different groups. All mice were immunized with PLP139-151 in Freund's complete adjuvant (CFA) to induce EAE, as reported previously (3, 4). The PLP/CFA emulsion (50 μL per site) was administered to four separate regions above the shoulder and on the flanks. In addition, 200 ng of pertussis toxin (List Biological Laboratories Inc., Campbell, Calif.) was injected intraperitoneally on day 0 and 2.
After disease stimulation, one group of mice received intravenous (i.v.) injections of 26 nmol/injection/day of the conjugate IDAC on days 4 and 7. The second and third groups of mice received i.v. injections of 100 nmol/injection/day of Ac-PLP-BPI-NH2-2 and 100 microliter of PBS, respectively, on days 4, 7, and 10. The animals were weighed and observed daily. Disease progression was evaluated observed using a blinded method as reported previously (3, 4). The clinical scores were rated using the following scale: 0—no clinical signs of disease; 1—tail weakness or limp tail; 2—paraparesis (weakness or incomplete paralysis of one or two hind limbs); 3—paraplegia (complete paralysis of two hind limbs); 4—paraplegia with forelimb weakness or paralysis; and 5—moribund or dead.
Statistical differences among the groups in clinical disease scores were determined by calculating the average score for each mouse from the day of disease onset to day 20 by One-way Analysis of Variance followed by Fisher's least significant difference using StatView (SAS Institute, Cary, N.C.). Statistical differences among the groups in body weight were also analyzed in the same way. The presence of significant difference is denoted with p-values of <0.05 or <0.001.

[4] = test system: splenocytes; assay: Cytokine levels in vitro from splenocytes of treated EAE mice (Q-Plex ELISA); format: cell-based, female SJL/J (H-2^s) mice; details: IDAC-3 26 nmol/injection s.c. days 4 and 7
Experimental: Representative spleens for each group (IDAC-3 or PBS) from Study 2 were harvested from female SJL/J (H-2^s) mice on days 13 and 35. Splenocytes were dispersed by gently smashing the spleen using the coarse portion of a 1 ml syringe in a petri dish containing RPMI 1640 medium (10% FBS, […]). The cells were then filtered through a 40 micrometer strainer. After centrifugation, the red blood cells were lysed using “ACK lysis buffer,” and the remaining white blood cells were washed three times with medium. Splenocytes (5×10^6 cells/ml) were cultured in parallel in the presence of 20 μM PLP and blank RPMI medium. Supernatants were collected at a 72 h time-point for the measurement of cytokine levels. The samples were then analyzed using a fully quantitative ELISA-based Q-Plex™ Mouse Cytokine-Screen (Quansys Biosciences, Logan, Utah).
as §1

[5] = i.v. 26 nmol/injection days 4 and 7, vs PBS
[6] = i.v. 26 nmol/injection days 4 and 7, vs PBS, p<0.0005, days 12-17
[7] = 3 injections, vaccine-like s.c.
[8] = s.c. 26 nmol/injection days 4 and 7, vs PBS
[9] = vaccine-like s.c. 10 nmol on days -11, -8, -5

B1: [N-(γ-maleimido)-1-oxybutyl]n-I-domain (protein, listed as Homo sapiens)
chain: MGNVDLVFLFDGSMSLQPDEFQKILDFMKDVMKKLSNTSYQFAAVQFSTSYKTEFDFSDYVKRKDPDALLKHVKHMLLLTNTFGAINYVATEVFREELGARPDATKVLIIITDGEATDSGNIDAAKDIIRYIIGIGKHFQTKESQETLHKFASKPASEFVKILDTFEKLKDLFTELQKKIY
modifications: GMBS maleimide-modified lysines
notes: I-domain with lysine amino groups modified by GMBS to carry maleimide groups; negative control and intermediate
formation of maleimide hydrolysis products (stability) [1]: increased upon storage
suppression of progress of EAE (clinical score, change in body weight, incidence of disease) ([2]; vs PBS): neither the I-domain nor GMB-I-domain significantly suppressed the progress of EAE
onset of disease ([2]; vs PBS): slight delay in the onset of the disease

B2: (HSLGKWLGHPDKFC)n-linker-I-domain (conjugate, listed as Homo sapiens)
chain 1: HSLGKWLGHPDKFC
chain 2: B1 chain
modifications: maleimide linker conjugation, ~2.5 peptides; Chemically synthesized signal 1 moiety peptide with amino acids 139-151 of PLP protein modified with a terminal cysteine
notes: PLP-Cys-OH peptides conjugated via maleimide linkers to lysine residues of LFA-1 I-domain; average 2.5 peptides per I-domain
disease incidence [2, 5]: delays in disease incidence
onset of disease (clinical scores) [2, 5]: delayed the onset of disease
clinical scores (suppression of EAE) [2, 6]: significantly better at suppressing EAE than PBS
body weight change [2, 5]: significantly more effective than PBS in suppressing disease
clinical disease scores (suppression of EAE) ([3]; i.v., IDAC 26 nmol/injection days 4, 7, Ac-PLP-BPI-NH2-2 100 nmol/injection days 4, 7, 10, vs PBS, p<0.0001, days 12-17): significant efficacy to suppress the progress of EAE
incidence of disease ([3]; i.v., IDAC 26 nmol/injection days 4, 7, Ac-PLP-BPI-NH2-2 100 nmol/injection days 4, 7, 10, vs PBS, p<0.0001, days 12-24): delayed
change in body weight ([3]; i.v., IDAC 26 nmol/injection days 4, 7, vs PBS): prevent the changes of bodyweights of the mice significantly
efficacy compared with the BPI molecule ([3]; two i.v. injections of 26 nmol IDAC vs three of 100 nmol Ac-PLP-BPI-NH2-2): appeared less than that of the BPI molecule

B3: I-domain: LFA-1 I-domain protein, SEQ ID NO: 1; negative control and carrier protein (protein, listed as Homo sapiens)
chain: B1 chain
suppression of progress of EAE (clinical score, change in body weight, incidence of disease) ([2]; vs PBS): neither the I-domain nor GMB-I-domain significantly suppressed the progress of EAE
onset of disease ([2]; vs PBS): slight delay in the onset of the disease

B4: (Ac-HSLGKWLGHPDKFC-NH2)n-linker-I-domain (conjugate, listed as Homo sapiens)
chain 1: HSLGKWLGHPDKFC
chain 2: B1 chain
modifications: Ac, NH2 caps; maleimide linker; Chemically synthesized signal 1 moiety peptide with amino acids 139-151 of PLP protein modified with a terminal cysteine
notes: Ac-PLP-Cys-NH2 (capped) peptides conjugated via maleimide linkers to lysine residues of I-domain
maximum toxic concentration (estimated therapeutic window) [2, 7]: 26 nmol
minimum effective concentration (estimated therapeutic window) [2, 7]: 10 nmol
clinical scores, IDAC-3 compared with IDAC-1 ([2]; i.v. 26 nmol/injection days 4 and 7, p<0.005, days 12-17): better than IDAC-1 in suppressing EAE
disease incidence [2, 5]: delays in disease incidence
onset of disease (clinical scores) [2, 5]: delayed the onset of disease
clinical scores (suppression of EAE) [2, 6]: significantly better at suppressing EAE than PBS
body weight change [2, 5]: significantly more effective than PBS in suppressing disease
disease incidence [2, 8]: significantly more efficacious than PBS in suppressing EAE
clinical scores (suppression of EAE) ([2]; s.c. 26 nmol/injection days 4 and 7, vs PBS, p<0.005, days 12-17): significantly more efficacious than PBS in suppressing EAE
change in body weight [2, 8]: significantly more efficacious than PBS in suppressing EAE
anaphylaxis [2, 9]: did not result in anaphylaxis
efficacy of low dose compared with 26 nmol dose [2, 9]: not as effective as the 26 nmol dose
efficacy of high dose compared with other groups ([2]; vaccine-like s.c. 26 nmol/injection days -11, -8, -5, four animals, no statistical analysis): seemed to be better than the lower dose (10 nmol/injection) group and similar to the Ac-PLP-BPI-NH2-2-treated group
toxic effect / adverse events (mice affected) ([2]; vaccine-like s.c. 26 nmol/injection, third injection (day -5)): two of six mice and 2 of the 6 mice
potency compared with Ac-PLP-BPI-NH2-2 ([2]; vaccine-like s.c. days -11, -8, -5, IDAC-3 10 nmol/injection vs Ac-PLP-BPI-NH2-2 100 nmol/injection): less potent than Ac-PLP-BPI-NH2-2
clinical scores (suppression of EAE) ([2]; vaccine-like s.c. days -11, -8, -5, IDAC-3 10 nmol/injection, Ac-PLP-BPI-NH2-2 100 nmol/injection, vs PBS, p<0.005, days 12-17): significantly better clinical scores
change in body weight ([2]; vaccine-like s.c. days -11, -8, -5, IDAC-3 10 nmol/injection, Ac-PLP-BPI-NH2-2 100 nmol/injection, vs PBS): significantly better
onset of disease (incidence of disease) ([2]; vaccine-like s.c., IDAC-3 26 nmol/injection days -11, -8, Ac-PLP-BPI-NH2-2 100 nmol/injection days -11, -8, -5): Delay in the onset of disease
relapse of disease (long-term effect) ([2]; vaccine-like s.c., IDAC-3 26 nmol/injection days -11, -8, Ac-PLP-BPI-NH2-2 100 nmol/injection days -11, -8, -5, days 45-55): long-term effect in suppressing relapse of the disease
clinical scores (suppression of EAE) ([2]; vaccine-like s.c., IDAC-3 26 nmol/injection days -11, -8, vs PBS, p<0.0001, days 12-17 and 45-55): suppressed EAE significantly better than PBS
change of body weight ([2]; vaccine-like s.c., IDAC-3 26 nmol/injection days -11, -8, vs PBS, p<0.0001, days 12-24): suppressed EAE significantly better than PBS
IL-5 level compared to PBS-treated group ([4]; day 13): no significant difference
IL-10 level ([4]; day 13): could not be detected
IL-2 level, PBS-treated vs IDAC-3-treated group ([4]; day 13, p<0.05): IL-2 cytokine levels were higher than in the IDAC-3-treated group
IL-2 level, PBS-treated vs IDAC-3-treated group ([4]; day 35): no significant difference
IL-17 level compared to PBS-treated group ([4]; day 35, p<0.0001): fourfold lower
IL-5 level compared to PBS-treated group ([4]; day 35, p<0.0005): significantly higher
IL-12 level compared to PBS-treated group ([4]; day 35, p<0.005): significantly lower
IL-10 level compared to PBS group ([4]; day 35, p<0.05): significantly higher levels
